Measurements as given in patent US20180030149A1.

Target: recombinant human ErbB3 monomeric protein (cleaved rhErbB3) (human) (UniProt P21860)
Assay: SPR Biacore 37 C; antibody captured on anti-human Fc, cleaved rhErbB3 (monomer) injected

Kd: 0.53 nM
Substance: U1-59 (antibody)
